The values that follow come from US20190336574A1 (TRUSTEES OF PRINCETON UNIVERSITY, published 2019).

Assay [1] addresses T1, HA-SND1, full-length human, wild type (human, UniProt Q7KZF4 1-910).
T1 sequence: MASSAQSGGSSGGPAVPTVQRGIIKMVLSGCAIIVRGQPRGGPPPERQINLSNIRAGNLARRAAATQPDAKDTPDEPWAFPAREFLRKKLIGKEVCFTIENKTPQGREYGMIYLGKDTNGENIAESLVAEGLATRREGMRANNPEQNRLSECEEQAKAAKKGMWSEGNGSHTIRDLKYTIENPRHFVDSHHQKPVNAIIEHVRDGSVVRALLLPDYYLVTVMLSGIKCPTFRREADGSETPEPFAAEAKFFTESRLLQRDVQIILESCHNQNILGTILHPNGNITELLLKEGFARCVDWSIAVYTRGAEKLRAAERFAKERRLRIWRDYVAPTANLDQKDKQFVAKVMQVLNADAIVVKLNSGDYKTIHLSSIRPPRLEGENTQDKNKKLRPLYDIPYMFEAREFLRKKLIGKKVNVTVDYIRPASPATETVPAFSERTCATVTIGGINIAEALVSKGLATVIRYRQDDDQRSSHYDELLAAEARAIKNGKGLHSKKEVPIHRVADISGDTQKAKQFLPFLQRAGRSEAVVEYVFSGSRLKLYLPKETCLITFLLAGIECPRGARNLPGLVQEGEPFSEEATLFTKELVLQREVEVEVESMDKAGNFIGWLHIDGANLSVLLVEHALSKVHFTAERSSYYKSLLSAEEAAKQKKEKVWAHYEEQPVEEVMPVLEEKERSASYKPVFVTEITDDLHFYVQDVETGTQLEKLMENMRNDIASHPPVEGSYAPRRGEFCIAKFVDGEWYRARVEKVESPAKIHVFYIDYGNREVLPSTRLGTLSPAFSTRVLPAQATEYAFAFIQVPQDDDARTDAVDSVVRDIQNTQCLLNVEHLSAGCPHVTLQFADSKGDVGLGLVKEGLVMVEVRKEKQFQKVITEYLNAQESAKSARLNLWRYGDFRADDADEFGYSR
In words: cell-based or functional assay.

The target of assay [2] is human AGO2 (ectopically expressed in HEK293T cells) (human, UniProt Q9UKV8 1-859). Nature of the assay: anti-Myc co-IP from HEK293T lysate (HA-SND1 and FLAG-AGO2 co-expressed), western blot. From the text:
Two putative nuclear localization signals are residues 432-451 for NLS2 and residues 561-580 for NLS3. […] (FIG. 7B) Pulldown of His6-SND1ΔC by GST-tagged MTDH fragments with indicated boundaries. The bound proteins were examined by SDS-PAGE and visualized by Coomassie blue staining. […] For (FIG. 7B) and (FIG. 7C), 1/10 of the His6-SND1ΔC input was shown, and GST alone was used as a negative control. Representative results of 3 independent experiments are shown. (FIG. 7D, FIG. 7E) Lysates from HEK293T cells expressing the indicated ectopic human SND1, AGO2 or MTDH were immunoprecipitated with anti-Myc and immunoblotted with the indicated antibodies.
Immunoprecipitation and western blot For immunoprecipitation (IP) experiments, cultured cells were washed in cold PBS and lysed in lysis buffer (20 mM Tris pH 7.4, 0.15 M NaCl, 1 mM EDTA, 1 mM EGTA, 1% Tx-100, 0.0025 M Na2P2O7, 1 mM α-glycerolphosphate, 1 mM Na3VO4, and 1 mM NaF) with an EDTA-free protease inhibitor mixture (Roche Applied Science) and PMSF. Cell lysates were then incubated on ice for 10 min, centrifuged, and precleared by incubating with protein A/G beads (Santa Cruz Biotechnology) for 1 h at 4° C. For IP bead preparation, 30 μl of protein A/G beads were incubated with 5 μg of antibodies for 2 h at 4° C. […]

Chain of human AGO2 (ectopically expressed in HEK293T cells) (Q9UKV8 whole entry, the tested form may be a part): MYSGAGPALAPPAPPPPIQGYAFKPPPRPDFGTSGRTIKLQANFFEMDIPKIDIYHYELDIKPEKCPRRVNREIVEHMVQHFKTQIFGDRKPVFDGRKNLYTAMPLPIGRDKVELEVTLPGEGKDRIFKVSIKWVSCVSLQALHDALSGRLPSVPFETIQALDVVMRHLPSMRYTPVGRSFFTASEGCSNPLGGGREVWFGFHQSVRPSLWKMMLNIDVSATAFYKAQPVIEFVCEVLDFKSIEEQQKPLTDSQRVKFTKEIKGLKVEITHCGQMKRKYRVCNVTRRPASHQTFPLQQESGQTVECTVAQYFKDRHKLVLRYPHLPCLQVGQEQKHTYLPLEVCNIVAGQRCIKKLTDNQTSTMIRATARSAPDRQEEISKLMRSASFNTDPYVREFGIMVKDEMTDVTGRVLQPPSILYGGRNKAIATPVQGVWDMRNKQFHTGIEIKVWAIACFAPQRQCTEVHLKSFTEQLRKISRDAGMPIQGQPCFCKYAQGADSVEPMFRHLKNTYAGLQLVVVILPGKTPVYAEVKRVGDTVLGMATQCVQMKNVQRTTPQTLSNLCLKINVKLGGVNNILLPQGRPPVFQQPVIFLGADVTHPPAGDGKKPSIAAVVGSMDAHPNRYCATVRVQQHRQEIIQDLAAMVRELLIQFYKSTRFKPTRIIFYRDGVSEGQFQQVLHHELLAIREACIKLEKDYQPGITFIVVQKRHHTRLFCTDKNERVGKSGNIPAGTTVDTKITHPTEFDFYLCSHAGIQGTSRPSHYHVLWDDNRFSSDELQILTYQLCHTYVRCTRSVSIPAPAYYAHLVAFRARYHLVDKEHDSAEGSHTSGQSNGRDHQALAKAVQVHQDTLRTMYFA

B1: Myc-MTDH, full-length human, wild type (other)
chain: MAARSWQDELAQQAEEGSARLREMLSVGLGFLRTELGLDLGLEPKRYPGWVILVGTGALGLLLLFLLGYGWAAACAGSRKKRRSPPRKREEAAAVPAAAPDDLALLKNLRSEEQKKKNRKKLSEKPKPNGRTVEVAEGEAVRTPQSVTAKQPPEIDKKNEKSKKNKKKSKSDAKAVQNSSRHDGKEVDEGAWETKISHREKRQQRKRDKVLTDSGSLDSTIPGIENTITVTTEQLTTASFPVGSKKNKGDSHLNVQVSNFKSGKGDSTLQVSSGLNENLTVNGGGWNEKSVKLSSQISAGEEKWNSVSPASAGKRKAEPSAWSQDTGDANTNGKDWGRSWSDRSIFSGIGSTAEPVSQSTTSDYQWDVSRNQPYIDDEWSGLNGLSSADPNSDWNAPAEEWGNWVDEERASLLKSQEPIPDDQKVSDDDKEKGEGALPTGKSKKKKKKKKKQGEDNSTAQDTEELEKEIREDLPVNTSKTRPKQEKAFSLKTISTSDPAEVLVKNSQPIKTLPPATSTEPSVILSKSDSDKSSSQVPPILQETDKSKSNTKQNSVPPSQTKSETSWESPKQIKKKKKARRET
notes: Full-length, Myc-tagged; Expressed in HEK293T cells, tested in lysate; also called Myc-tagged MTDH; WT Myc-MTDH
Regarding B1, the “half-life of HA-SND1 in HEK293T cells at 45° C (heat shock)” value in assay [1] is over 3 h. For the same molecule, in assay [2], the binding result was “binds”.
